Data taken from the supplement of paper PMC10567573.

B1: EPB41L3 (parent)
chain: SMQCKVILLDGSEYTCDVEKRSRG
B2: GNAI1 (parent)
chain: WIHCFEGVTAIIFCVALSDYDLVL

Variants of: B1
Assay: protein stability index of a GFP-peptide fusion (GPS, HEK-293T) (PSI 1-6); higher = more stable
Details: c terminus: a fixed tail appended
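Further: lentivirally expressed fusions sorted by FACS into six bins by GFP to DsRed ratio, PSI derived from sequencing read proportions per bin multiplied by bin number.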

Protein stability index, by site and new letter:
G11: N 3.26, H 3.67, Q 2.87, M 1.73, P 3.22, V 2.64, L 2.75, A 2.58, R 2.64, D 2.98, T 2.76, I 1.99, C 2.41, Y 2.51, E 2.03, K 2.94, W 1.68
S12: D 3.08, G 2.9, W 1.94, R 2.99, Y 1.78, K 3.51, P 2.4, C 2.14, V 2.05, E 4.38, M 1.98, T 2.16, N 2.91, H 2.34, I 2.39, A 3.39, Q 2.92
R23: L 2.8, V 2.88, Q 2.87, C 3.04, H 3.31, Y 2.22, A 3.05, K 3.39, D 3.51, T 3.61, F 2.07, I 2.45, M 2.72, E 2.63, N 2.52, P 2.51, S 3.17
D10: N 1.89, R 2.03, V 1.62, S 2.04, Q 2.41, K 3.15, W 1.09, Y 1.77, M 1.5, E 2.24, F 2.14, H 1.5, P 2.66, T 2.75, L 1.67, A 2.07, G 2.14
L9: S 2.85, H 3.44, V 3.31, Y 2.41, N 3.92, A 3.6, M 3.2, D 4.09, C 2.79, E 4.28, K 3.81, I 2.97, T 3.51, G 3.72, F 2.83, Q 3.94, P 3.71, R 3.03
K20: N 3.04, V 2.11, S 2.52, I 1.21, W 1.02, P 2.49, Q 2.6, C 2.15, A 2.06, M 2.04, L 1.67, T 3.66, F 1.43, E 3.26, D 3.36, H 2.87
Y14: E 3.83, I 2.74, P 3.66, K 3.97, V 3.15, W 1.9, G 3.69, L 1.84, S 4.43, F 2.21, N 3.7, D 3.81, A 3.7, R 3.66, T 2.81, C 2.67
V6: T 3.71, G 3.61, F 2.76, R 3.62, M 3.36, I 2.2, S 4.07, Q 2.97, H 2.56, W 2.59, Y 2.95, P 4.68, N 4.5, L 2.44
E19: F 1.19, S 2.6, Q 2.5, L 1.99, G 2.51, N 2.29, M 2.14, R 2.15, H 1.73, I 1.93, Y 2.14, K 2.34, C 2.13, V 2.35, T 1.54, W 2.11, D 2.19, A 2.17, P 2.11
L8: Y 3.13, H 3.66, A 3.31, K 3.43, C 3.13, S 3.79, N 4.24, T 2.67, Q 4.25, P 4.33, R 2.83, E 4.05, D 4.41, M 3.13, F 4.39, I 2.17
T15: R 2.45, Q 3.19, M 2.49, L 1.67, H 1.98, F 1.63, Y 2.58, I 2.67, V 2.06, P 3.37, E 2.45, D 3.38, S 3.03
D17: R 3.07, L 3.38, M 1.1, Y 1.61, T 2.59, E 2.84, G 2.34, W 2.06, I 1.89, C 2.45, H 2.51, P 3.08, N 2.36, S 2.21
C16: G 3.19, M 2.41, H 3.53, W 2.01, V 3.7, N 2.84, A 2.95, E 3.52, L 2.23, P 2.66, F 2.66, S 2.65, T 2.55, K 3.07, I 2.77, D 3.44
G24: Q 2.17, V 2.83, M 2.51, Y 2.25, H 2.47, A 3.43, I 1.98, R 2.84, D 2.37, C 2.56, E 3, P 2.47, K 2.99, L 2.47, S 3.48, W 2.88, F 2.47, N 3.27, T 3.25
V18: Q 3.83, L 1.79, S 3.69, P 3.57, C 2.29, I 2.82, M 2.62, T 3.38, H 2.72, Y 2.29, E 3.18, G 2.96, R 2.92, F 2.1, D 3.36, N 3.24, K 4.16, A 3.5
S22: I 2.16, L 2.08, D 2.52, A 2.29, H 2.89, E 3.75, G 3.02, R 3.11, Y 2.38, C 2.09, N 3.47, P 2.56, M 2.4, W 2.11, T 3.63, F 2.38, V 2.12
E13: Q 2.98, N 1.75, P 3.48, G 2.79, M 2.09, K 2.41, Y 1.9, D 2.37, L 2.7, S 3.27, I 1.51, A 2.14, W 2.05, H 2.75, V 1.86, C 1.81, T 2.33
I7: S 3.91, A 3.03, F 2.39, L 2.63, D 4.08, H 3.03, N 3.43, Y 2.15, T 3.64, R 3.45, W 3.62, Q 3.13
R21: D 3.49, T 2.84, Q 2.55, G 2.73, C 2.86, I 1.88, H 2.72, M 1.88, W 1.57, L 2.31, P 3.06, E 3.09, Y 2.09, V 2.19, N 1.92, K 3.56

Variants of: B2
Assay: as above
Details: c terminus: a fixed tail appended

Protein stability index of substitutions, site by site:
W1: A 3.11, T 2.32, V 3.35, P 3.51, F 2.29, G 2.14, S 1.5, N 2.99, H 3.09, E 2.82, M 2.91, D 3.44, Y 3.22, Q 1.72, K 3.4, I 4.21, L 3.13
I2: G 1.7, A 2.9, H 2.9, L 1.83, F 1.63, D 2.21, E 3.25, Q 3.22
